Experimental data from patent publication US20160333113A1 (NATIONAL CANCER CENTER, published 2016).

Key:
[1] = target: T1, human tissue factor (hTF), purified, construct not stated (human, UniProt P13726 33-251, limits assumed); assay: SPR, Biacore 2000, antibody immobilized on CM5 chip, purified hTF in flow
T1 construct: The SPR and the chimeric-antibody ELISA say only 'purified hTF' / 'hTF'; also called purified hTF; human TF
Description: The anti-hTF monoclonal antibodies (No. 1849 and No. 1859) were each immobilized on the surface of a Biacore CM5 chip. The CM5 chip, which had each antibody immobilized thereon, was set in a SPR device, and an antigen-containing buffer containing purified hTF was allowed to flow through its flow path. The dissociation constant between each of the antibodies and hTF was determined by this measurement system. It should be noted that the measurement conditions were as follows.

recombinant hTF = recombinant hTF (human, UniProt P13726 33-251); assay: cell-based or functional assay

B1: anti-hTF monoclonal antibody (No. 1859) (antibody, IgG2a, V domains shown)
VH: EVMLVESGPGLVQPSQTLSLICTVSGFSLTDYSVHWVRQPPGKGLEWVGVMWSGGTTTFNSGLKSRLSISRDTSKSQVFLKMYSLRTEDTAVYYCTRERAGSPLNWFAYWGQGTLVTVSS
VL: DIVMTQSPASLSASLEEIVTITCQASQDIGNYLSWYQQKPGKSPHLLIHSSTSLADGVPSRFSGSRSGTQYSLKINRLQVEDTGVYYCLQHYSGSRTFGGGTNLELK
notes: Rat hybridoma IgG purified on Protein G; constant regions are not
[1]
  Kd: 0.189 nM
Recombinant hTF
  Prolonged coagulation time ratio (prothrombin time ratio, PBS control = 1): 1.22 ratio relative to PBS

B2: anti-hTF monoclonal antibody (No. 1849) (antibody, IgG2b, V domains shown)
VH: EVQLVESGGGLVQSGRSLKLSCAASGFTFSDYNMAWIRQAPKKGLEWVAAIIYDGTRTYYRDSVRGRFTISRDNAKSTLYLQVDSLRSEDTATYYCATGDSYTNFAYWGQGTLVTVSS
VL: EIVLTQSPTTMAASPGEKVTLTCRASSSLSYMHWYQQRSGTSPKLWIYETSKLASGVPNRFSGSGSGTSFSLTIDSMETEDAATYYCQQGNSYPRTFGGGTKLELK
notes: Rat hybridoma IgG purified on Protein G; constant regions are not; also called rat anti-hTF monoclonal antibody (No. 1849)
[1]
  Kd: 0.0914 nM
Recombinant hTF
  Prolonged coagulation time ratio (prothrombin time ratio, PBS control = 1): 5.54 ratio relative to PBS
